Data: paper PMC7060837

What was measured:
[1] = biological target: GMPCPP-stabilized microtubules of porcine brain tubulin (porcine) (UniProt P02550)
[2] = biological target: T1, katanin MEI-1/MEI-2 (wild type) (C. elegans) (UniProt P34808)
T1 sequence 1: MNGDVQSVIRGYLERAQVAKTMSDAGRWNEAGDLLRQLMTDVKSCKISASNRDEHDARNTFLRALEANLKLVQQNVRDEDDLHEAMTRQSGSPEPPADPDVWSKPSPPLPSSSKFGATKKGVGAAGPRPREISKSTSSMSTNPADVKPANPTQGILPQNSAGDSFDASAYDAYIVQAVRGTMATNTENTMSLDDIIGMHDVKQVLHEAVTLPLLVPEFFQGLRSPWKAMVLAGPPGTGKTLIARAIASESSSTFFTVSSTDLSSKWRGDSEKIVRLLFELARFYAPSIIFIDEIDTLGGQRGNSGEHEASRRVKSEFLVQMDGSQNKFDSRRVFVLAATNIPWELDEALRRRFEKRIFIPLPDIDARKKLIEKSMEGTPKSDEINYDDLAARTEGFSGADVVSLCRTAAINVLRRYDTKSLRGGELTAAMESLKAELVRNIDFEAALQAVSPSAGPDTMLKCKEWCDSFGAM
T1 sequence 2: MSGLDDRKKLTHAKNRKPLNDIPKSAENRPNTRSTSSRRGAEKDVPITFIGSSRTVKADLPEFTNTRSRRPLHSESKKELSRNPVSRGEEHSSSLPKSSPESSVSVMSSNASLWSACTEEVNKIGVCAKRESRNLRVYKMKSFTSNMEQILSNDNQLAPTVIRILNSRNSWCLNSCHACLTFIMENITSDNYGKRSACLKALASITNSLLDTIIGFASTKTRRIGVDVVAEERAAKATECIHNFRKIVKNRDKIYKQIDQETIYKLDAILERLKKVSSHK

[3] = biological target: T1, katanin MEI-1/MEI-2 (wild type) (C. elegans); remark: listed apart in the source
[4] = biological target: katanin MEI-1/MEI-2 mutant Glu308 to alanine (C. elegans) (UniProt P34808)
[5] = biological target: taxol-stabilized brain microtubules (UniProt P02550)
[6] = biological target: katanin MEI-1/MEI-2 mutant K265A (C. elegans) (UniProt P34808)
[7] = biological target: GMPCPP-stabilized microtubules of porcine brain tubulin (porcine) (UniProt P02550); remark: listed apart in the source
[8] = biological target: katanin MEI-1/MEI-2 mutant R267A (C. elegans) (UniProt P34808)
[9] = biological target: katanin MEI-1/MEI-2 mutant W266A (C. elegans) (UniProt P34808)

“Drosophila melanogaster spastin with Arg159Arg160Arg166Arg172Arg174 mutated to alanine (enzyme)” gave a microtubule severing activity of spastin at 20 nM, reduction against wild type [1] of 70%.

βV-tail (peptide) was tested, and the stimulation of katanin ATPase by the tail, weaker than βI and βIVb by [2] was 30%.

Molecule “Drosophila melanogaster spastin mutated in the N-terminal positively-charged cluster Arg110Lys111Lys117Arg118 (enzyme)” has a microtubule severing activity of spastin at 20 nM, reduction against wild type [1] of 50%.

B1: βI-tubulin tail peptide (peptide)
peptide: DATAEEEEDFGEEAEEEA
B1 showed a maximal stimulation of katanin ATPase by the tail peptide (2 to 600 μM) [3] of 3.5 fold.

B2: katanin MEI-1/MEI-2 mutant Glu308 to alanine (complex)
chain 1: MNGDVQSVIRGYLERAQVAKTMSDAGRWNEAGDLLRQLMTDVKSCKISASNRDEHDARNTFLRALEANLKLVQQNVRDEDDLHEAMTRQSGSPEPPADPDVWSKPSPPLPSSSKFGATKKGVGAAGPRPREISKSTSSMSTNPADVKPANPTQGILPQNSAGDSFDASAYDAYIVQAVRGTMATNTENTMSLDDIIGMHDVKQVLHEAVTLPLLVPEFFQGLRSPWKAMVLAGPPGTGKTLIARAIASESSSTFFTVSSTDLSSKWRGDSEKIVRLLFELARFYAPSIIFIDEIDTLGGQRGNSGEHAASRRVKSEFLVQMDGSQNKFDSRRVFVLAATNIPWELDEALRRRFEKRIFIPLPDIDARKKLIEKSMEGTPKSDEINYDDLAARTEGFSGADVVSLCRTAAINVLRRYDTKSLRGGELTAAMESLKAELVRNIDFEAALQAVSPSAGPDTMLKCKEWCDSFGAM
chain 2: MSGLDDRKKLTHAKNRKPLNDIPKSAENRPNTRSTSSRRGAEKDVPITFIGSSRTVKADLPEFTNTRSRRPLHSESKKELSRNPVSRGEEHSSSLPKSSPESSVSVMSSNASLWSACTEEVNKIGVCAKRESRNLRVYKMKSFTSNMEQILSNDNQLAPTVIRILNSRNSWCLNSCHACLTFIMENITSDNYGKRSACLKALASITNSLLDTIIGFASTKTRRIGVDVVAEERAAKATECIHNFRKIVKNRDKIYKQIDQETIYKLDAILERLKKVSSHK
For B2, the basal ATPase, reduction against wild type [4] was 87%.

B3: katanin MEI-1/MEI-2 mutant K265A (complex)
chain 1: MNGDVQSVIRGYLERAQVAKTMSDAGRWNEAGDLLRQLMTDVKSCKISASNRDEHDARNTFLRALEANLKLVQQNVRDEDDLHEAMTRQSGSPEPPADPDVWSKPSPPLPSSSKFGATKKGVGAAGPRPREISKSTSSMSTNPADVKPANPTQGILPQNSAGDSFDASAYDAYIVQAVRGTMATNTENTMSLDDIIGMHDVKQVLHEAVTLPLLVPEFFQGLRSPWKAMVLAGPPGTGKTLIARAIASESSSTFFTVSSTDLSSAWRGDSEKIVRLLFELARFYAPSIIFIDEIDTLGGQRGNSGEHEASRRVKSEFLVQMDGSQNKFDSRRVFVLAATNIPWELDEALRRRFEKRIFIPLPDIDARKKLIEKSMEGTPKSDEINYDDLAARTEGFSGADVVSLCRTAAINVLRRYDTKSLRGGELTAAMESLKAELVRNIDFEAALQAVSPSAGPDTMLKCKEWCDSFGAM
chain 2: MSGLDDRKKLTHAKNRKPLNDIPKSAENRPNTRSTSSRRGAEKDVPITFIGSSRTVKADLPEFTNTRSRRPLHSESKKELSRNPVSRGEEHSSSLPKSSPESSVSVMSSNASLWSACTEEVNKIGVCAKRESRNLRVYKMKSFTSNMEQILSNDNQLAPTVIRILNSRNSWCLNSCHACLTFIMENITSDNYGKRSACLKALASITNSLLDTIIGFASTKTRRIGVDVVAEERAAKATECIHNFRKIVKNRDKIYKQIDQETIYKLDAILERLKKVSSHK
Work on B3 yielded a microtubule stimulated ATPase, reduced (so in the source) [5] of 58% and a basal ATPase, reduced (so in the source) [6] of 42%.

B4: katanin MEI-1/MEI-2 Arg128Arg130Lys134Ala triple mutant (complex)
chain 1: MNGDVQSVIRGYLERAQVAKTMSDAGRWNEAGDLLRQLMTDVKSCKISASNRDEHDARNTFLRALEANLKLVQQNVRDEDDLHEAMTRQSGSPEPPADPDVWSKPSPPLPSSSKFGATKKGVGAAGPAPAEISASTSSMSTNPADVKPANPTQGILPQNSAGDSFDASAYDAYIVQAVRGTMATNTENTMSLDDIIGMHDVKQVLHEAVTLPLLVPEFFQGLRSPWKAMVLAGPPGTGKTLIARAIASESSSTFFTVSSTDLSSKWRGDSEKIVRLLFELARFYAPSIIFIDEIDTLGGQRGNSGEHEASRRVKSEFLVQMDGSQNKFDSRRVFVLAATNIPWELDEALRRRFEKRIFIPLPDIDARKKLIEKSMEGTPKSDEINYDDLAARTEGFSGADVVSLCRTAAINVLRRYDTKSLRGGELTAAMESLKAELVRNIDFEAALQAVSPSAGPDTMLKCKEWCDSFGAM
chain 2: MSGLDDRKKLTHAKNRKPLNDIPKSAENRPNTRSTSSRRGAEKDVPITFIGSSRTVKADLPEFTNTRSRRPLHSESKKELSRNPVSRGEEHSSSLPKSSPESSVSVMSSNASLWSACTEEVNKIGVCAKRESRNLRVYKMKSFTSNMEQILSNDNQLAPTVIRILNSRNSWCLNSCHACLTFIMENITSDNYGKRSACLKALASITNSLLDTIIGFASTKTRRIGVDVVAEERAAKATECIHNFRKIVKNRDKIYKQIDQETIYKLDAILERLKKVSSHK
For B4, the microtubule severing activity, reduction against wild type [7] was 32% and the tubulin extraction (nanodamage) activity, reduction against wild type [7] was 51%.

B5: katanin MEI-1/MEI-2 mutant R267A (complex)
chain 1: MNGDVQSVIRGYLERAQVAKTMSDAGRWNEAGDLLRQLMTDVKSCKISASNRDEHDARNTFLRALEANLKLVQQNVRDEDDLHEAMTRQSGSPEPPADPDVWSKPSPPLPSSSKFGATKKGVGAAGPRPREISKSTSSMSTNPADVKPANPTQGILPQNSAGDSFDASAYDAYIVQAVRGTMATNTENTMSLDDIIGMHDVKQVLHEAVTLPLLVPEFFQGLRSPWKAMVLAGPPGTGKTLIARAIASESSSTFFTVSSTDLSSKWAGDSEKIVRLLFELARFYAPSIIFIDEIDTLGGQRGNSGEHEASRRVKSEFLVQMDGSQNKFDSRRVFVLAATNIPWELDEALRRRFEKRIFIPLPDIDARKKLIEKSMEGTPKSDEINYDDLAARTEGFSGADVVSLCRTAAINVLRRYDTKSLRGGELTAAMESLKAELVRNIDFEAALQAVSPSAGPDTMLKCKEWCDSFGAM
chain 2: MSGLDDRKKLTHAKNRKPLNDIPKSAENRPNTRSTSSRRGAEKDVPITFIGSSRTVKADLPEFTNTRSRRPLHSESKKELSRNPVSRGEEHSSSLPKSSPESSVSVMSSNASLWSACTEEVNKIGVCAKRESRNLRVYKMKSFTSNMEQILSNDNQLAPTVIRILNSRNSWCLNSCHACLTFIMENITSDNYGKRSACLKALASITNSLLDTIIGFASTKTRRIGVDVVAEERAAKATECIHNFRKIVKNRDKIYKQIDQETIYKLDAILERLKKVSSHK
B5 showed a microtubule stimulated ATPase, reduction against wild type [5] of 60% and a basal ATPase, reduction against wild type [8] of 51%.

B6: katanin MEI-1/MEI-2 mutant W266A (complex)
chain 1: MNGDVQSVIRGYLERAQVAKTMSDAGRWNEAGDLLRQLMTDVKSCKISASNRDEHDARNTFLRALEANLKLVQQNVRDEDDLHEAMTRQSGSPEPPADPDVWSKPSPPLPSSSKFGATKKGVGAAGPRPREISKSTSSMSTNPADVKPANPTQGILPQNSAGDSFDASAYDAYIVQAVRGTMATNTENTMSLDDIIGMHDVKQVLHEAVTLPLLVPEFFQGLRSPWKAMVLAGPPGTGKTLIARAIASESSSTFFTVSSTDLSSKARGDSEKIVRLLFELARFYAPSIIFIDEIDTLGGQRGNSGEHEASRRVKSEFLVQMDGSQNKFDSRRVFVLAATNIPWELDEALRRRFEKRIFIPLPDIDARKKLIEKSMEGTPKSDEINYDDLAARTEGFSGADVVSLCRTAAINVLRRYDTKSLRGGELTAAMESLKAELVRNIDFEAALQAVSPSAGPDTMLKCKEWCDSFGAM
chain 2: MSGLDDRKKLTHAKNRKPLNDIPKSAENRPNTRSTSSRRGAEKDVPITFIGSSRTVKADLPEFTNTRSRRPLHSESKKELSRNPVSRGEEHSSSLPKSSPESSVSVMSSNASLWSACTEEVNKIGVCAKRESRNLRVYKMKSFTSNMEQILSNDNQLAPTVIRILNSRNSWCLNSCHACLTFIMENITSDNYGKRSACLKALASITNSLLDTIIGFASTKTRRIGVDVVAEERAAKATECIHNFRKIVKNRDKIYKQIDQETIYKLDAILERLKKVSSHK
For B6, the microtubule stimulated ATPase, reduced (so in the source) [5] was 64% and the basal ATPase, reduced (so in the source) [9] was 59%.

B7: βIVb-tubulin tail peptide (peptide)
peptide: DATAEEEGEFEEEAEEEVA
B7 was tested, and the maximal stimulation of katanin ATPase by the tail peptide (2 to 600 μM) [3] was 3.5 fold.

B8: α-tubulin tail peptide (peptide)
peptide: VDSVEGEGEEEGEEY
Molecule B8 has a maximal stimulation of katanin ATPase by the tail peptide (2 to 600 μM) [3] of 2.2 fold.
